B1: 1210/1211 (antibody, V domains shown)
VH: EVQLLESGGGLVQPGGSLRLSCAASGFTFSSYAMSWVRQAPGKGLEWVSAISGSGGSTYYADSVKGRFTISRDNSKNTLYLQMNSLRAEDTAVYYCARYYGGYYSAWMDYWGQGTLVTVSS
VL: DIQMTQSPSSLSASVGDRVTITCRASQSISSYLNWYQQKPGKAPKLLIYAASSLQSGVPSRFSGSGSGTDFTLTISSLQPEDFATYYCQQTYGYLHTFGQGTKLEIK
B2: 1206/1207 (antibody, V domains shown)
VH: EVQLLESGGGLVQPGGSLRLSCAASGFTFSGSSMSWVRQAPGKGLEWVSSIYYSGSGTYYADSVKGRFTISRDNSKNTLYLQMNSLRAEDTAVYYCARYGRNVHPYNLDYWGQGTLVTVSS
VL: DIQMTQSPSSLSASVGDRVTITCRASQSISSYLNWYQQKPGKAPKLLIYAASSLQSGVPSRFSGSGSGTDFTLTISSLQPEDFATYYCQQGYYYLPTFGQGTKLEIK

Columns and labels:
[1] = target: T1, human/mouse 5T4 chimera E7; assay: flow cytometry, cells with human/mouse 5T4 chimera
T1 construct: on transfected CHO cells
Description: (§1) Epitope mapping was performed by investigation of loss of binding by the antibodies using a panel of human/mouse chimeric 5T4 constructs by flow cytometry. […] Two strategies were used for the epitope mapping as illustrated in FIG. 5. In one approach, seven human/mouse 5T4 chimeras were constructed based on dividing 5T4 into seven different domains (FIG. 5). By replacing each domain with the corresponding mouse sequence seven human/mouse 7 5T4 human/mouse chimeras were generated. The chimeras were generated using the human protein 5T4 sequence NP_006661.1 (reference mRNA sequence NM_006670.4) and the corresponding mouse sequence NP_035757.2 (reference mRNA sequence NM_011627.4). The human/mouse chimeric DNA constructs, as well as human and mouse wild-type 5T4, were cloned into pcDNA3.1 expression vectors. […] As controls human 5T4 and mouse 5T4-transfected cells were used. For flow cytometric analysis, cells were stained with different 5T4 antibodies diluted in FACS buffer (PBS, 0.5% BSA). […] Samples were analysed by FACSverse (BD Biosciences, Heidelberg, Germany) and % positive cells were determined. To compensate for variations in % 5T4 positive cells in the various transfected populations, binding levels were normalized within each chimera by dividing % positive cells for each clone with % positive cells for the clones resulting in the highest % positive cells (% pos cellscloneX/% positive cellsₘₐₓ). A normalized value ≤0.75 was defined as mAb binding being dependent on the replaced region, whereas a normalized value ≤0.25 was defined as complete dependence.

[2] = target: T2, human/mouse 5T4 chimera E3; assay: flow cytometry, cells with human/mouse 5T4 chimera
T2 construct: on transfected CHO cells
Description: as §1

[3] = target: T3, human/mouse 5T4 chimera E4; assay: flow cytometry, cells with human/mouse 5T4 chimera
T3 construct: on transfected CHO cells
Description: as §1

[4] = target: T4, human/mouse 5T4 chimera E2; assay: flow cytometry, cells with human/mouse 5T4 chimera
T4 construct: on transfected CHO cells
Description: as §1

[5] = target: T5, human/mouse 5T4 chimera E5; assay: flow cytometry, cells with human/mouse 5T4 chimera
T5 construct: on transfected CHO cells
Description: as §1

[6] = target: T6, human/mouse 5T4 chimera E1; assay: flow cytometry, cells with human/mouse 5T4 chimera
T6 construct: on transfected CHO cells
Description: as §1

[7] = target: T7, human/mouse 5T4 chimera E6; assay: flow cytometry, cells with human/mouse 5T4 chimera
T7 construct: on transfected CHO cells
Description: as §1

5T4-Fc = target: T8, 5T4-Fc (human, UniProt Q13641 32-355, limits assumed); assay: ELISA, coated 5T4-Fc
T8 construct: obtained from Peter L. Stern, University of Manchester; also called h5T4-Fc; recombinant 5T4
T8 sequence (looked up): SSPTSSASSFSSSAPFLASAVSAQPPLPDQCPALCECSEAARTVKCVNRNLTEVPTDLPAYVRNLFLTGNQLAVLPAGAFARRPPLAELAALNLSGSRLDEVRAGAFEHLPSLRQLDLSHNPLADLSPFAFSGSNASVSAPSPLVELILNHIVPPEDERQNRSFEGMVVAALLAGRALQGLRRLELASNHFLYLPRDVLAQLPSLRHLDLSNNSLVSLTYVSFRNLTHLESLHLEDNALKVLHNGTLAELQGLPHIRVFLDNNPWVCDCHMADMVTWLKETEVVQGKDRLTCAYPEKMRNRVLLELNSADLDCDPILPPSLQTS
Description: ELISA was performed using a standard protocol. Plates (#655074, Greiner Bio-One GmbH, Germany) were pre-coated with 0.5 μg/ml 5T4-Fc (obtained from Peter L. Stern, University of Manchester) overnight. 5T4 antibodies were diluted from 6 to 1.5×10⁻³ μg/ml in 1:4 dilutions and added in duplicates of 50 μl to each well. Binding was detected with rabbit anti-h kappa L-chain-HRP (P0129, Dako Denmark) and the ELISA was developed with SuperSignal ELISA PICO Chemiluminescent substrate (Thermo Scientific Pierce, Rockford, Ill. USA) for 2-10 minutes and read in an automated microplate based multi-detection reader (FLUOstar OPTIMA, Netherlands).

5T4 (SPR antigen) = target: T9, 5T4 (SPR antigen) (UniProt Q13641 32-355, limits assumed, biotinylated on the MASS-1 platform); assay: SPR MASS-1, biotinylated antigen on streptavidin chip, parental mAb
T9 construct: also called biotinylated 5T4
T9 sequence (looked up): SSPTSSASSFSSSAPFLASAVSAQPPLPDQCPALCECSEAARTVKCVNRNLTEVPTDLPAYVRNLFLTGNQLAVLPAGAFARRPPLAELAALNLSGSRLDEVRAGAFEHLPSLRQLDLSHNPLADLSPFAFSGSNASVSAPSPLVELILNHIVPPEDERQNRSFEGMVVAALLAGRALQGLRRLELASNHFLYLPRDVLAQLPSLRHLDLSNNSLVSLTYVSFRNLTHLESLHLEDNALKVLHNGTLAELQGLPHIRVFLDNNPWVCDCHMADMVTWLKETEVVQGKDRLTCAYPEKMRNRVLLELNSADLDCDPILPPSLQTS

Binder | normalized % positive cells [1] | normalized % positive cells [2] | normalized % positive cells [3] | normalized % positive cells [4] | normalized % positive cells [5] | normalized % positive cells [6] | normalized % positive cells [7] | EC50 (5T4-Fc) | Kd (5T4 (SPR antigen))
B1 | 0.96 | 0.9 | 0.69 | 0.02 | 0.89 | 0.99 | 0.89 | 0.48 nM | 0.437 nM
B2 | 0.94 | 0.25 | 0.52 | 0.74 | 0.9 | 0.96 | 0.94 | 0.64 nM | 

Source: patent US20190169308A1 (ALLIGATOR BIOSCIENCE, published 2019)
